Measurements reported in patent US20140303084.
Numbering of substitutions follows the chain as printed.

Assays:
[1] = tested on: T1, HYARVQLRCLDGYCWLLTKSRM
T1 sequence: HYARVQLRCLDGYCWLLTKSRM

[2] = tested on: T2, RRAPGKLTCLASYCWLF STGVA THANTTATAQ
T2 sequence: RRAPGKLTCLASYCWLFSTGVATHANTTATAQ

[3] = tested on: T3, PRIRTVGPGSRSASGKLTCSASYCWLFWTGIA
T3 sequence: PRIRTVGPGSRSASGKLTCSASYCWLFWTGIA

[4] = tested on: T4, AQLRRKLTCLASYCWLFGFFSP
T4 sequence: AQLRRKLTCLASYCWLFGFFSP

[5] = tested on: T5, KATCLASYCWLF
T5 sequence: KATCLASYCWLF

[6] = tested on: T6, RRAPGKLTCLASYCWLF WTGWA VLARVPVGWT
T6 sequence: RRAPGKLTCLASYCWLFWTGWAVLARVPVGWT

[7] = tested on: T7, RRAPGKLTCLAS-MeTyr-CWLFWTGIA
T7 sequence: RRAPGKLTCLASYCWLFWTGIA

[8] = tested on: T8, DAKVAKLRCLGSQCWLLQYAPG
T8 sequence: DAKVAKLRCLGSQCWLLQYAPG

[9] = tested on: T9, GKLQCLASYCWLFWTGIA
T9 sequence: GKLQCLASYCWLFWTGIA

[10] = tested on: T10, compound 23
T10 sequence: T3 sequence with S20L

[11] = tested on: T11, QAKMLKLTCLASYCWLFWVTRS
T11 sequence: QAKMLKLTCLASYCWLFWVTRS

[12] = tested on: T12, KLTCLASYCwLF
T12 sequence: KLTCLASYCWLF

[13] = tested on: T13, PRIRTVGPGSRSASGKLTCFASYCWLFWTGIA
T13 sequence: T3 sequence with S20F

[14] = tested on: T14, LRQRLAKTCVASYCWLFSLVAS
T14 sequence: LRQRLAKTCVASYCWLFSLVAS

[15] = tested on: T15, CRRAPGKLQCLASYCWLFWTGIAGGSGGC
T15 sequence: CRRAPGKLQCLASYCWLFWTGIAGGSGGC

[16] = tested on: T16, SKQGRPISPDrRAAGKLTCLaSYCWLFWTGIA
T16 sequence: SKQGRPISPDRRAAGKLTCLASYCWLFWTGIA

[17] = tested on: T17, RRAPGKLTCLASYCWLF LGGIA PEGASTRTAN
T17 sequence: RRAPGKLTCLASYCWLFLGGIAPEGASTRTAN

[18] = tested on: T18, GASGRRRTCVASYCLLFQSGLP
T18 sequence: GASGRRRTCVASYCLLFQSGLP

[19] = tested on: T19, KLTCLA-HSe-YCWLF
T19 sequence: KLTCLAXYCWLF

[20] = tested on: T20, Ac-KLTCLASYCWLF
T20 sequence: KLTCLASYCWLF

[21] = tested on: T21, KITCLASYCWLF
T21 sequence: KLTCLASYCWLF

[22] = tested on: T22, PQTRDPSSRD RRAPG KLTCLASYCWLFWTGIA
T22 sequence: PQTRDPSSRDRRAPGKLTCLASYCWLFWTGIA

[23] = tested on: T23, KKTCVASFCQMI
T23 sequence: KKTCVASFCQMI

[24] = tested on: T24, RRAPGCLTALASYCWLFWTGIA-CONH2
T24 sequence: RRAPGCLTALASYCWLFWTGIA

[25] = tested on: T25, PRIRTVGPGSRSASGKLSCLASYCWLFWTGIA
T25 sequence: T3 sequence with T18S, S20L

[26] = tested on: T26, compound 6
T26 sequence: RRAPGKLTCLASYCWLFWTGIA

[27] = tested on: T27, KLT-Lys-LASY-Glu-WLF
T27 sequence: KLTKLASYEWLF

[28] = tested on: T28, RRAPGKLTCLASYCWLF WRGFA ERASEDTNQG
T28 sequence: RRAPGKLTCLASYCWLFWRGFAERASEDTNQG

[29] = tested on: T29, RRaPGKLTCLASYCWLFWTGIA
T29 sequence: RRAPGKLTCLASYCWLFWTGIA

[30] = tested on: T30, Orn-LTCLASYCWLF
T30 sequence: XLTCLASYCWLF

[31] = tested on: T31, KLKCLASYCWLF
T31 sequence: KLKCLASYCWLF

[32] = tested on: T32, KLtCLASYCWLF
T32 sequence: KLTCLASYCWLF

[33] = tested on: T33, RRAPGKLTCLASYCWLFWtGIA
T33 sequence: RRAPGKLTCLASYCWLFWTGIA

[34] = tested on: T34, ═N-O-(CH2)3-O-N═(COCH2CH2CO-KLTCLASYCWLF)2
T34 sequence: KLTCLASYCWLF

[35] = tested on: T35, RRAPGKLTCL-MeAla-SYCWLFWTGIA
T35 sequence: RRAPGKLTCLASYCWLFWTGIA

[36] = tested on: T36, rRAPGKLTCLASYCWLFWTGIA-PEG16-Lys(PEG2-Biotin)-PEG16-CNPRGD-Tyr(OEt)-RC
T36 sequence: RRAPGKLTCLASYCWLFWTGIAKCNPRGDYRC

[37] = tested on: T37, RYQRARLTCLASYCGLLFSMSA
T37 sequence: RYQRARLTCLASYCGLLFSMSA

[38] = tested on: T38, GDSGRKLSCLGSYCWLSVQFMA
T38 sequence: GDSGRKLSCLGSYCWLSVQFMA

[39] = tested on: T39, RRAPGKLTCLASYCWLFWK(PEG2-Biotin)GIA
T39 sequence: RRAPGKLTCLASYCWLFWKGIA

[40] = tested on: T40, RRAPGKLTCLASYCK(PEG2-Biotin)LFWTGIA
T40 sequence: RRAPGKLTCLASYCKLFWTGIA

[41] = tested on: T41, RAPGKLQCLASYCWLFWTGIA
T41 sequence: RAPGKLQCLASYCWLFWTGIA

[42] = tested on: T42, SKAGRPISPDrRAAGKLTCLASYCWLFWTGIA
T42 sequence: T16 sequence with Q3A

[43] = tested on: T43, SKQGRPISPDRRAAGKLT-Asp-LASY-Orn-WLFWTGIA
T43 sequence: T16 sequence with C19D, C24X

[44] = tested on: T44, GRAMAAEPWP RQAPG KLTCLASYCWLFWTGIA
T44 sequence: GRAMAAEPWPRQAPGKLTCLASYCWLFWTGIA

[45] = tested on: T45, RRAPGKLTCLASYCWLF WTTYA SYATKPADTT
T45 sequence: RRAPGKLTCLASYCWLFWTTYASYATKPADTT

[46] = tested on: T46, AIGTWFLWCYSALCTLKGPARR (retro)
T46 sequence: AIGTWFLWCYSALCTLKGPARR

[47] = tested on: T47, Palmitoyl-(PEG)27(PEG)27-KLTCLASYCWLF
T47 sequence: KLTCLASYCWLF

[48] = tested on: T48, RRAPGKLtCLASYCWLFWTGIA
T48 sequence: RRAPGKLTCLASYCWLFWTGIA

[49] = tested on: T49, PRIRTVGPGSRSASGKLTCIASYCWLFWTGIA
T49 sequence: T3 sequence with S20I

[50] = tested on: T50, RRAPGKLTCLASYCWLF WTGLA PGRGQGGVAG
T50 sequence: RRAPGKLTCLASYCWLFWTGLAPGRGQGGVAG

human Factor IXa
Vmax, FXa generation assay [1]: > 2.5
Vmax, FXa generation assay [2]: > 3
Vmax, FXa generation assay; (++) means 1-2 [3]: (++)
Vmax, FXa generation assay; (++) means 1-2 [4]: (++)
Vmax, FXa generation assay [5]: > 2
Vmax, FXa generation assay [6]: > 2
Vmax, FXa generation assay; (++) means 1-2 [7]: (++)
Vmax, FXa generation assay; (++) means 1-2 [8]: (++)
Vmax, FXa generation assay [9]: > 2
Vmax, FXa generation assay with hFIXa [10]: > 3
Vmax, FXa generation assay [11]: > 2
Vmax, FXa generation assay [12]: > 3
Vmax, FXa generation assay [13]: > 2
Vmax, FXa generation assay [14]: > 1.5
Vmax, FXa generation assay [15]: > 2
Vmax, FXa generation assay [16]: > 0.5
Vmax, FXa generation assay [17]: > 3
Vmax, FXa generation assay [18]: > 0.1
Vmax, FXa generation assay; (++) means 1-2 [19]: (++)
Vmax, FXa generation assay; (++) means 1-2 [20]: (++)
Vmax, FXa generation assay [21]: > 2
Vmax, FXa generation assay [22]: > 3
Vmax, FXa generation assay [23]: > 4
Vmax, FXa generation assay; (++) means 1-2 [24]: (++)
Vmax, FXa generation assay [25]: > 3
Vmax, FXa generation assay with hFIXa [26]: > 2
Vmax, FXa generation assay; (++) means 1-2 [27]: (++)
Vmax, FXa generation assay [28]: > 2
Vmax, FXa generation assay; (++) means 1-2 [29]: (++)
Vmax, FXa generation assay; (++) means 1-2 [30]: (++)
Vmax, FXa generation assay [31]: > 3
Vmax, FXa generation assay [32]: > 2
Vmax, FXa generation assay; (++) means 1-2 [33]: (++)
Vmax, FXa generation assay [34]: > 3
Vmax, FXa generation assay; (++) means 1-2 [35]: (++)
Vmax, FXa generation assay [36]: > 3
Vmax, FXa generation assay [37]: > 0.5
Vmax, FXa generation assay; (++) means 1-2 [38]: (++)
Vmax, FXa generation assay; (++) means 1-2 [39]: (++)
Vmax, FXa generation assay; (++) means 1-2 [40]: (++)
Vmax, FXa generation assay; (++) means 1-2 [41]: (++)
Vmax, FXa generation assay [42]: > 2
Vmax, FXa generation assay [43]: > 3
Vmax, FXa generation assay [44]: > 2
Vmax, FXa generation assay [45]: > 2
Vmax, FXa generation assay; (++) means 1-2 [46]: (++)
Vmax, FXa generation assay [47]: > 0.3
Vmax, FXa generation assay; (++) means 1-2 [48]: (++)
Vmax, FXa generation assay [49]: > 2
Vmax, FXa generation assay [50]: > 3
